Laboratory results from paper doi:10.1101/2022.06.20.496707.
Where two headings read alike, the source gives them in different places.

What was measured:
[1] = target: Serratia NucC (type III-A CRISPR-Cas-associated accessory nuclease of Serratia sp. ATCC 39006) (Serratia sp. ATCC 39006); test: crystal structure
[2] = target: Serratia NucC (type III-A CRISPR-Cas-associated accessory nuclease of Serratia sp. ATCC 39006) (Serratia sp. ATCC 39006); test: crystal structure; remark: listed apart in the source

## Serratia NucC (type III-A CRISPR-Cas-associated accessory nuclease of Serratia sp. ATCC 39006) (enzyme)
[1]
  stoichiometry N: 6
[2]
  stoichiometry N: 6
